B1: TPR t1 (parent)
chain: GACCAAUCUGCCCUCAGAGCUCGAGAACAUCUUCGGAUGCAGAGGAGGCAGGCUUCGGUGGCGCGAUAGCGCCAACGUCCUCAACCUCCAAUGCAUCCCACCACAUGAUGAUGCCUGAAGAGCCUUGGUUUUUUG

Variants of: B1
Assay: polymerase ribozyme fitness, log enrichment relative to wild type (log ratio); higher = more active; in vitro selection for triplet polymerase activity
How it was run: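 Fitness measures genotype enrichment against wild-type enrichment on a logarithmic scale, with inverse-variance-weighted averaging of replicates. The logarithm is base 2, and genotypes were kept only with ≥10 input reads and ≥1 read per output in Illumina sequencing. The sequenced libraries came from one triplicate in vitro selection round, including frozen incubation at −7 °C, of PCR-built, transcribed mutant libraries of each subunit of a heterodimeric triplet polymerase ribozyme.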

Variant | polymerase ribozyme fitness (log ratio)
GACCAAUCUGCCAUCAGAGCUCGAGAACGUCUUCGGAUGCAGAGGAGGCAGGCUUCGGUGGCGCGAUAGCGCCAACGUCCUCAACCUCCAAUGCAUCCCACCACAUGAUGAUGCCUGAAGAGCCUUGGUUUUUUG [C13A A29G] | -3.22
GACCAAUCUGCCAUCAGGGCUCGAGAACAUCUUCGGAUGCAGAGGAGGCAGGCUUCGGUGGCGCGAUAGCGCAAACGUCCUCAACCUCCAAUGCAUCCCACCACAUGAUGAUGCCUGAAGAGCCUUGGUUUUUUG [C13A A18G C73A] | -4.96
GACCAAUCUGCCAUCAGAGCUCGAGUACAUCUUCGGAUGCAGAGGUGGCAGGCUUCGGUGGCGCGAUAGCGCCAACGUCCGCAACCUCCAAUGCAUCCCACCACAUGAUGAUGUCUGAAGAGCCUUGGUUUUUUG [C13A A26U A46U U81G C114U] | -6.71
GACCAAUCUGCCAUCAGAGCUCGAGAACAUCUUCGGAUGCAGCGGAGGCAGGCUUCGGUGGCGCGAUAGCGCCAACGUCCUCAACCUCCAAUGCAUCCCAACACAUGAUGCUGCCUGAAGAGCCUUGGUUUUUUG [C13A A43C C101A A111C] | -6.5
GACCAAUCUGCCAUCAGAGCUCGAGAACGUCUUCGGAUGCAGAGGAGGCAGGCUUCGGUGGCGCGAUAGUGCCAACGUCCUCAACCUCCAAUGCUUCCCACCACAUGAUGAUGCCUGAAGAGCAUUGGUUUUUUG [C13A A29G C70U A95U C124A] | -1.57
GACCAAUCUGCCAUCAGGGCUCGAGAACAUCUUCGGAUGCAGAGGAGGAAGGCUUCGGUGGCGCGAUAGCGCCAACGUCCUCAACCUCCAAUGUAUCCCACCACAUGAUGAUGCCUUAAGAGCCUUGGUUUUUUG [C13A A18G C49A C94U G117U] | -6.43
GACCAAUCUGCCAUCAGAGCUCGAGAACAUCUUCGGAUGCAGAGGAGGCAGGCUUCGGUGGCGCGAUAGCGCCAACGUCCUCAACCUCCAAUGCCUCCCACCACAUGAUGAUGCCUGAAAAGCCUUGGUUUUUUG [C13A A95C G120A] | -0.521
GACCAAUCUGCCAUCAGAGCUCGGGAACAUCCUCGGAUGCAGAGGAGGCAGGCUUCGGUGGCGCGAUAGCGCCAACGUCCUCAACCUCCAAUGUAUCCCACCAUAUGAUGAUGCCUGAAAAGCCUUGGUUUUUUG [C13A A24G U32C C94U C104U G120A] | -1.91
GACCAAUCUGCCAUCAGAGCUCGAGAACAUCUUCGGAUGCAGCAGAGGCAGGCUUCGGUGGCGCGAUAGCGCCAACAUCCUCUACCUCCAAUGCAUCCCACCACAUGAUGAUGCCUGAAGAGCCUUGGUUUUUUG [C13A A43C G44A G77A A83U] | -4.05
GACCAAUCUGCCAUCAGGGCUCGAGAACAUCUUCGGAUGCAGAGGAGGCAGGCUUCGGUGGCGCGAUAGCGCCAACGUCCUCAACCUCCAAUGCAUCGCACCACAUGAUGAUGCCUGAACAGCCUUGGUUUUUUG [C13A A18G C98G G120C] | -1.26
GACCAAUCUGCCAUCAGAGCUCGAGAACAUCUUCGGAUGCAGAGGAGGCGGGCUUCGGUGGCGCGAUAGCACCAACGUCCUCAACCUCCAAUGCAUCCCACCACAUGAUGAUGCCUGAAGAGCCUUGGUUUUUUG [C13A A50G G71A] | -2.13
GACCAAUCUGCCAUCAGAGCUCGAGAACAUCUUCGGAUGCAGAGGGGGCAGGCUUCGGUGGCCCGAUAGCGCCAACGUCCUCAACCUCCAAUGCAUCCCACCACAUGAUGAUGCCUGAAGAGCCUUGGUUUUUUG [C13A A46G G63C] | -2.95
GACCAAUCUGCCAUCAGAGCUCGAGAACAUCUUCGGAUGCGGAGGAGGCAGGCUUCGGUGGCGCGAUAACGCCAACGUCCUCAACCUCCAAUGCAUCCCACCACAUGAUGAUGCCUGAAGAGCCUUGGUUUUUUG [C13A A41G G69A] | -5.37
GACCAAUCUGCCAUCAGAGCUCGAGAACAUCUUCGGAUGCAGCGGAGGCAGGCUUCGGUGGCGCGAUAGCGCCAACGUCCUCGACCUCCAAUGCAUCCCACAACAUGAUAAUGCCUGAAGAGCCUUGGCUUUUUG [C13A A43C A83G C102A G110A U129C] | -6.67
GACCAAUCUGCCAUCAGAGCUCGAGAACAUCUUCGGAUGCAGAGGAGGCAGGCUUCGGUGGCGCGUUAGCGCCAACGUCCUCAACCUCCAAUGCAUCCCAACACAUGAUGAUGCCUGAAGAGCCUUGGUUUUUUG [C13A A66U C101A] | -4.3
GACCAAUCUGCCAUCAGAGCUCGAGAACAUCUUCGGAUGCAGUGGAGGCAGGCUUCGGUCGCGCGAUAGCGCCAACGUCCUCAACCUACAAUGCAUCCCACCACAUGAUGAUGCCUGAAGAGCCUUGGUUUUUUG [C13A A43U G60C C88A] | -4.2
GACCAAUCUGCCAUCAGAGCUCGAGAACAUCUUCGGAUGCAGAGGAGGCAGGCUUCGGUGGCGCGAUAGCGCCAACGUCCUCAGCCUCCAAUGCAUCCCACCACAUGAUGAUGCCUGAAGAGCCUUGGUUUUUUG [C13A A84G] | -2.42
GACCAAUCUGCCAUCAGAGCUCGAGAACAUCUUCGGAUGCAGCGGAGGCAGGCUUCGGUGGCGCGAUAGCGCCAACGUCCUCAACCUCCAAUCCAUCCCACCACAUGAUGAUGCCUGAAGAGCCUUGGUUUUUUG [C13A A43C G93C] | -5.21
GACCAAUCUGCCAUCAGUGCUCGAGAACAUCUUCGGAUGCAGAGGAGGCAGGUUUCGGUGGCGCGAUAGCGCCAACGUCCUCAACCUCCAAUGCAUCCCACCACAUGAUGAUGCCUGAAGAGCCUUGGUUUUUUG [C13A A18U C53U] | -3.95
GACCAAUCUGCCAUCAGCGCUCGAGAACAUCUUCGGAUGCAGAGGAGGCAGGCUUCGGUGGCGCGAUAGCGCCAACGUCCUCAACCUCCAAUGCAUCCCACCACAUGAUGAUGCCUGAAGAGCCUUGGUUUUUUG [C13A A18C] | -4.69
GACCAAUCUGCCAUCAGAGCUCGAGAACAUCUUCGGAUGCAGAGGUGGCAGGCUUCGGUGGCGCGAUAGCGCCUACGUCCUCAACCUCCAAUGCAUCCCACCACAUGAUGAUGCCUGAAGAGCCUUGGUUUUUUG [C13A A46U A74U] | -3.21
